Experimental data from patent publication US20190263876A1 (published 2019).
Read-outs that look alike come from different tables or passages of the source. Blank lines part the entries; values can stand above or below the binder they belong to.

Tests used:
GDF11 [1] = target: T1, GDF11 (UniProt O95390 299-407); assay: cell-based or functional assay
T1 construct: also called Growth and Differentiation Factor-11; BMP11
T1 sequence (looked up): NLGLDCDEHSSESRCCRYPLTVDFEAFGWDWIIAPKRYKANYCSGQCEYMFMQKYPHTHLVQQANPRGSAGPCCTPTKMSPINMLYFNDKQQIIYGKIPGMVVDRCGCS

Activin A [2] = target: T2, Activin A (UniProt P08476); assay: cell-based or functional assay
T2 sequence (looked up): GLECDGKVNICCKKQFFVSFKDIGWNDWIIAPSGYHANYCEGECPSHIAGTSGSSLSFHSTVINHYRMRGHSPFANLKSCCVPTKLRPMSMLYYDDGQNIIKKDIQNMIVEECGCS

GDF11 [3] = target: T1, GDF11; assay: cell-based or functional assay; remark: listed apart in the source
Activin A [4] = target: T2, Activin A; assay: cell-based or functional assay; remark: listed apart in the source
GDF11 [5] = target: T1, GDF11; assay: BiaCore; ligand coupled to the device, receptor flowed

- IC50 (ng/mL), GDF-11, reporter assay, conditioned media (GDF11 [3]): 69 ng/mL
- IC50 (ng/mL), Activin, reporter assay, conditioned media (Activin A [4]): 105 ng/mL
B2: ActRIIB(24-131)-hFc (Fc fusion, not shown: a dimerising Fc or GST)
chain: AETRECIYYNANWELERTNQSGLERCEGEQDKRLHCYASWRNSSGTIELVKKGCWLDDFNCYDRQECVATEENPQVYFCCCEGNFCNERFTHLPEAGGPEVTYEPPPT

- GDF11 Inhibition Activity, cell-based assay (KI) (GDF11 [1]): 1000 nM
- Activin Inhibition Activity, cell-based assay (KI) (Activin A [2]): 1000 nM
B6: ActRIIB-Fc A64 20-134 (Fc fusion, not shown: a dimerising Fc or GST)
chain: GRGEAETRECIYYNANWELERTNQSGLERCEGEQDKRLHCYASWANSSGTIELVKKGCWLDDFNCYDRQECVATEENPQVYFCCCEGNFCNERFTHLPEAGGPEVTYEPPPTAPT

- Kd (GDF11 [5]): 19 nM
B7: Soluble ActRIIB-Fc +15tail (Fc fusion, not shown: a dimerising Fc or GST)
chain: SGRGEAETRECIYYNANWELERTNQSGLERCEGEQDKRLHCYASWANSSGTIELVKKGCWLDDFNCYDRQECVATEENPQVYFCCCEGNFCNERFTHLPEAGGPEVTYEPPPTAPT

More lines, now with the values behind:

B1: ActRIIB(20-132)-hFc (Fc fusion, not shown: a dimerising Fc or GST)
chain: GRGEAETRECIYYNANWELERTNQSGLERCEGEQDKRLHCYASWRNSSGTIELVKKGCWLDDFNCYDRQECVATEENPQVYFCCCEGNFCNERFTHLPEAGGPEVTYEPPPTA
- IC50 (ng/mL), GDF-11, reporter assay, conditioned media (GDF11 [1]): 87 ng/mL
- IC50 (ng/mL), Activin, reporter assay, conditioned media (Activin A [2]): 32 ng/mL

B3: ActRIIB(22-131)-hFc (Fc fusion, not shown: a dimerising Fc or GST)
chain: GEAETRECIYYNANWELERTNQSGLERCEGEQDKRLHCYASWRNSSGTIELVKKGCWLDDFNCYDRQECVATEENPQVYFCCCEGNFCNERFTHLPEAGGPEVTYEPPPT
- IC50 (ng/mL), GDF-11, reporter assay, conditioned media (GDF11 [3]): 71 ng/mL
- IC50 (ng/mL), Activin, reporter assay, conditioned media (Activin A [4]): 100 ng/mL

B4: ActRIIB(23-131)-hFc (Fc fusion, not shown: a dimerising Fc or GST)
chain: EAETRECIYYNANWELERTNQSGLERCEGEQDKRLHCYASWRNSSGTIELVKKGCWLDDFNCYDRQECVATEENPQVYFCCCEGNFCNERFTHLPEAGGPEVTYEPPPT
- IC50 (ng/mL), GDF-11, reporter assay, conditioned media (GDF11 [3]): 60 ng/mL
- IC50 (ng/mL), Activin, reporter assay, conditioned media (Activin A [4]): 43 ng/mL

B5: ActRIIB(20-128)-hFc (Fc fusion, not shown: a dimerising Fc or GST)
chain: GRGEAETRECIYYNANWELERTNQSGLERCEGEQDKRLHCYASWRNSSGTIELVKKGCWLDDFNCYDRQECVATEENPQVYFCCCEGNFCNERFTHLPEAGGPEVTYEP
- IC50 (ng/mL), GDF-11, reporter assay, conditioned media (GDF11 [1]): 130 ng/mL
- IC50 (ng/mL), Activin, reporter assay, conditioned media (Activin A [2]): 158 ng/mL

B8: ActRIIB(20-131)-hFc (Fc fusion, not shown: a dimerising Fc or GST)
chain: GRGEAETRECIYYNANWELERTNQSGLERCEGEQDKRLHCYASWRNSSGTIELVKKGCWLDDFNCYDRQECVATEENPQVYFCCCEGNFCNERFTHLPEAGGPEVTYEPPPT
- IC50 (ng/mL), GDF-11, reporter assay, conditioned media (GDF11 [3]): 183 ng/mL
- IC50 (ng/mL), Activin, reporter assay, conditioned media (Activin A [4]): 201 ng/mL
- IC50 (ng/mL), GDF-11, reporter assay, conditioned media (GDF11 [1]): 120 ng/mL
- IC50 (ng/mL), Activin, reporter assay, conditioned media (Activin A [2]): 44 ng/mL

B9: ActRIIB(21-131)-hFc (Fc fusion, not shown: a dimerising Fc or GST)
chain: RGEAETRECIYYNANWELERTNQSGLERCEGEQDKRLHCYASWRNSSGTIELVKKGCWLDDFNCYDRQECVATEENPQVYFCCCEGNFCNERFTHLPEAGGPEVTYEPPPT
- IC50 (ng/mL), GDF-11, reporter assay, conditioned media (GDF11 [3]): 121 ng/mL
- IC50 (ng/mL), Activin, reporter assay, conditioned media (Activin A [4]): 325 ng/mL
